Results from PMC5708649, “A novel Porphyromonas gingivalis enzyme: An atypical dipeptidyl peptidase III with an ARM repeat domain” (PLoS ONE, 2017).

How the values were obtained:
[1] = test system: Cc1cc(=O)oc2cc(NC(=O)[C@H](CCCNC(=N)N)NC(=O)[C@@H](N)CCCNC(=N)N)ccc12; assay: purified protein, by the assay type; conditions: pH 8.0; 26.0 °C
[2] = test system: N=C(N)NCCC[C@H](NC(=O)[C@@H](N)CCCNC(=N)N)C(=O)Nc1ccc2ccccc2c1; assay: purified protein, by the assay type; conditions: pH 8.0; 26.0 °C

With “DPP III fragment (1–679 aa) (Porphyromonas gingivalis W83)” as the substance, how does the Km [1] read?
Its Km is 9.97 ± 0.44 µM.

What about the kcat [1] of the same substance?
The kcat was 0.0024 ± 0.0014 s⁻¹.

What about the kcat/Km [1] of the same substance?
The kcat/Km was 241 M⁻¹ s⁻¹.

And the Km [2]?
Its Km is 4.37 ± 0.42 µM.

What about the kcat [2] of the same substance?
The kcat was 0.0032 ± 0.0005 s⁻¹.

And the kcat/Km [2]?
Its kcat/Km is 732 M⁻¹ s⁻¹.
